From patent US20220412960A1 come the findings set out here.

The assay addresses PAR-1 receptor on human platelets (human) (UniProt P25116). Put plainly: cell-based or functional assay.

PAR-1 receptor on human platelets (human), sequence (P25116 42-425): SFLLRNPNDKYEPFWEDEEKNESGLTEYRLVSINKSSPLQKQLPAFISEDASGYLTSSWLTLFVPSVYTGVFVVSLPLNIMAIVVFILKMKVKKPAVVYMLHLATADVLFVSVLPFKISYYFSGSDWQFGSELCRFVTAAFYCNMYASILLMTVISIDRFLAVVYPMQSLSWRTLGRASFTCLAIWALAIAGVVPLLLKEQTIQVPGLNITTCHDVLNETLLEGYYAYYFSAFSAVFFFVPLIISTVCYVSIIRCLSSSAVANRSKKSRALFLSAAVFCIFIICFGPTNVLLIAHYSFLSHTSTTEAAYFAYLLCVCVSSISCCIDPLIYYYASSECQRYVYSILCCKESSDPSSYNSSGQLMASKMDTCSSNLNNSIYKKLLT

Consider “thrombin receptor agonist peptide TRAP-6”, for which the platelet aggregation, light transmission aggregometry, washed platelets of sepsis patients at ICU admission, 10 µM TRAP-6 was over 21.2% and the platelet aggregation, light transmission aggregometry, washed platelets of sepsis patients at ICU admission, 10 µM TRAP-6 (mean) is 34.2%.
